These results are taken from patent US20120219559A1 (Johns Hopkins, published 2012).

In assay [1] the target is T1, human B7-H2Ig fusion protein (human, UniProt O75144 19-258).
T1 construct: Ig (Fc) part not given
T1 sequence: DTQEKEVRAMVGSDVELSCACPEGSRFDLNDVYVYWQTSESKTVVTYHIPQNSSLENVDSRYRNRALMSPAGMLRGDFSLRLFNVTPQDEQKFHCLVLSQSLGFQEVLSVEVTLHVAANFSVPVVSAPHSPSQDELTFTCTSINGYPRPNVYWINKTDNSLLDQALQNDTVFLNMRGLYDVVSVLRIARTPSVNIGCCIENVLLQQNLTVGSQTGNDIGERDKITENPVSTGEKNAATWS
As to the kind of experiment: SPR (BIAcore 3000); comparison of ICOSIg and CD28Ig on immobilized B7-H2Ig. As to the method:
(§1) For all experiments, the same fusion proteins were injected into uncoated control flow cells to serve as the control. Binding data was overlaid with the fit of 1:1 interaction model.
(§2) Surface Plasmon Resonance. Protein interactions were measured and analyzed on a BIAcore 3000 instrument (BIAcore AB, Uppsala, Sweden) performed at 25° C. as described previously 20. […] Hepes, pH 7.4, containing 0.15 M NaCl, 0.005% surfactant P20 (HBS) was used as running buffer. […] All other reagents were purchased from BIAcore. […] The remaining activated carboxyl groups were blocked with 1 M ethanolamine (pH 8.5). Subsequently, the flow cells were extensively washed with HBS to generate a stable baseline. […] The flow cells were regenerated by two consecutive 10-second pulses with 10 mM NaOH. Data was analyzed by BIAevaluation software 4.1 (BIAcore).

The target in assay [2] is T2, B7-H2 (Y53A) mutant, full length with C terminal GFP tag, on 293T cells (human, UniProt O75144 19-302, The C-terminal GFP reporter is not carried in the letters.).
T2 construct: not shown: C-terminal GFP tag and any linker to it
T2 sequence: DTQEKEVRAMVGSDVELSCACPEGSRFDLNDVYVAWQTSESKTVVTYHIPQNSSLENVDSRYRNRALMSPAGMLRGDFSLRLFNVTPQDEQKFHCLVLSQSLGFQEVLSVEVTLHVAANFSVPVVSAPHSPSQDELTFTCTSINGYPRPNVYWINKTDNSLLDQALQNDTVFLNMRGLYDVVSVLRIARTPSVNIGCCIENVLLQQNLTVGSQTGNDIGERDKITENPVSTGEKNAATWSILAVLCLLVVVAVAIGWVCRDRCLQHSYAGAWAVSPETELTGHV
As to the kind of experiment: flow cytometry; ICOSIg binding to 293T cells expressing the mutant. An excerpt:
(§3) These residues were all converted to alanine, a small […] amino acid with neutral charge, to avoid a large overall structure modulation (16).

For assay [3], the target named is T3, B7-H2 (Y51A) mutant, full length with C terminal GFP tag, on 293T cells (human, UniProt O75144 19-302, The C-terminal GFP reporter is not carried in the letters.).
T3 construct: not shown: C-terminal GFP tag and any linker to it
T3 sequence: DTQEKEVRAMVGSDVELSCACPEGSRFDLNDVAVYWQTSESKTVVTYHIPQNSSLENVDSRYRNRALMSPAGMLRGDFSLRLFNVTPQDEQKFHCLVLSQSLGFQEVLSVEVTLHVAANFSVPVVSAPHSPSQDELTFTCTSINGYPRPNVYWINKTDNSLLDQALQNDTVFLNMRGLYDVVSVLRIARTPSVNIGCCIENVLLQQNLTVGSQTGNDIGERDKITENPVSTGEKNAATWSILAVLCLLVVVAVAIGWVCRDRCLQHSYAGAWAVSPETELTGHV
The assay is described as above.
Text: as §3

Assay [4] has as its target T1, human B7-H2Ig fusion protein. As to the kind of experiment: SPR (BIAcore 3000); ICOSIg injected over B7-H2Ig coupled to a CM5 chip; 1:1 interaction model. As to the method:
as §1, §2

B1: human ICOSIg fusion protein (Fc fusion)
chain: EINGSANYEMFIFHNGGVQILCKYPDIVQQFKMQLLKGGQILCDLTKTKGSGNTVSIKSLKFCHSQLSNNSVSFFLYNLDHSHANYYFCNLSIFDPPPFKVTLTGGYLHIYESQLCCQLKF
notes: Bought from R&D Systems; Ig (Fc) part not given
For the molecule B1, the “fold higher affinity than CD28 for binding B7-H2” value in assay [1] is around 100 fold. Also, the binding result in assay [2] and in assay [3] was “no binding” each time. The koff in assay [4] was found to be 0.004 s⁻¹. In assay [4], this molecule showed a kon of 240000 M⁻¹ s⁻¹.
